The labels stand for the following.
B1: 抗体2 (antibody, V domains shown)
VH: EVQLQQFGAELVKPGASVKISCKASGYTFTDYNMDWVKQSHGKSLEWIAYINPNYEITTYNQKFKGKATLTVDKSSSTAYMELRSLTSEDTAVYYCARGRGGYDPAMDYWGQGTSVTVSS
VL: SIVMTQTPKFLLVSAGDRVTITCKASQSVSNDVTWSQQKPGQSPKLLIYYASNRYTGVPDRFTGSGYGTDFTFTISTVQAEDLAVYLCQQDNSTPPTFGAGTKLELK
notes: Mouse hybridoma monoclonal antibody purified on Protein A; also called 鼠源抗NKp30抗体; NKp30 mAb
B2: 抗体1 (antibody, V domains shown)
VH: QVQLQQPGAELVKPGASVKLSCKASGYTFTSYWMEWVKLRPGQGFDWIGEINPSNGGTNYNEKFKRKAILTVDKSSSAAYMQLSGLTSEDSAVYYCTIGGDYAWFAYWGQGTLVTVSA
VL: DIKMTQSPSSMYASLGERVTITCKASQDIKSYLSWYQQKPWKSPKTLIFYATSLADGVPSRFSASGSGQDYSLTISSLESDDTATYYCLQHGESPYTFGGGTKLEIK
notes: as for B1
B3: 抗体5 (antibody, V domains shown)
VH: VLILKESGGGLVKPGGSLKLSCAASGFAFSSYDMSWVRQTPEKRLEWVATISSGGSYTYYPDSVKGRFTISRDNARNTLYLQMSSLRSEDTALYYCARHFGDHDGYVMDYWGQGTSVIVSS
VL: DIVMTQSPSSLAMSLGQKVTMSCKSSQSLLNSSNQKSNLAWYQQKPGQSPKLLVYFASTRESGVPDRFIGSGSGTDFSLTIRSVQAEDLADYFCQQHYSTPFTFGSGTKLEIK
notes: as for B1
B4: 抗体4 (antibody, V domains shown)
VH: EVQLVESGGGLVKPGGSLKLSCAASGFTFSDYGMSWIRQTPEKRLEWVASISSGGTYTYYPDSVKGRFTISRDSAKNTLYLQMNSLRSEDTAMYYCARRDGYYSVEYWGQGTSVTVSS
VL: QIVLTQSPAIMSASPGGEVTMTCSASSSVSFMHWYQQKSGTSPKRWIFDTSKLASGVPTRFSGSGSGTSYSLTISSMEAEDAATYYCQQWTTNPPTFGGGTKLEIK
notes: as for B1
B5: 抗体6 (antibody, V domains shown)
VH: QVQLQQSGAELVRPGVSVKISCKGSGYTFTDYAMHWVKQSHAKSLEWIGIISTYYGDASYNQKFKGKATMTVDKSSSTAYMELARLTSEDSAIYYCARDYDNRYAAMDYWGQGTSVTVSS
VL: DIVMTQAAFSNPVTLGTSASISCRSSKSLLHSNGITYLYWYLQKPGQSPQLLIYQMSNLASGVPDRFSSSGSGTDFTLRISRVEAEDVGVYYCAQNLELPYTFGGGTKLEIK
notes: as for B1
B6: 抗体3 (antibody, V domains shown)
VH: QGQLQQSGAEVMKPGASVKISCKANGHTFGSYWIEWIKQRPGHGLEWIGEILPGSGSKKYNEKFEGKATFTEETSSNTAYMELTSLTSEDSAVYYCSRGGYYGSRFAYWGQGTLVTVSA
VL: DVVLTQTPLSLPVNIGDQASISCKSTKSLLNSDGFTYLDWYLQKPGQSPQLLIYLVSNRFSGVPDRFSGSGSGTDFTLKISRVEAEDLGVYYCFQSNYLPFTFGSGTKLEIK
notes: as for B1

Six molecules from patent publication CN115124620A (SHENGHE CHINA BIO PHARMACY CO LTD, dated 2022) can be followed below.

The experiment addresses T1, 人NKp30-his蛋白(KACTUS;Cat:NKP-HM430) (human, UniProt O14931 19-135).
T1 construct: Bought protein; Molar concentration was calculated with 35 kDa; also called 重组人NKp30-his; 人NKp30蛋白; not shown: his tag
T1 sequence (looked up): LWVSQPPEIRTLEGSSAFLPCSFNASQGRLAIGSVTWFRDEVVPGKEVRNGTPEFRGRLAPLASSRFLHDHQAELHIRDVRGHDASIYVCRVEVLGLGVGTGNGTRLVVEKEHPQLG
In words: BLI (Octet Red96e), antibody captured on sensor, 100 nM human NKp30-his in solution, 1:1 model.
The Kd is the equilibrium constant for the complex coming apart. A higher Kd goes with lower affinity. The term koff denotes a measure of how fast the partners let go of each other. Usually kon stands for the rate constant with which the complex forms. A lower kon goes with slow association. Take B1: the dissociation constant Kd is 0.197 nM, the off-rate (koff) turned out to be 0.000212 s⁻¹ and the kon was found to be 1.08e+06 M⁻¹ s⁻¹.

The molecule B2 yielded a Kd of 0.439 nM, a koff of 0.000708 s⁻¹ and a kon of 1.61e+06 M⁻¹ s⁻¹.

B3: the equilibrium dissociation constant (Kd) came out at 0.821 nM, the koff is 0.000552 s⁻¹ and the kon was determined as 673000 M⁻¹ s⁻¹.

Molecule B4 had a Kd of 0.846 nM, a koff of 0.000338 s⁻¹ and a kon of 399000 M⁻¹ s⁻¹.

Take B5: the dissociation constant (Kd) came out at 5.43 nM, the off-rate (koff) came to 0.00585 s⁻¹ and the association rate constant (kon) turned out to be 1.08e+06 M⁻¹ s⁻¹.

For B6, binding was put at a Kd of 2.03 nM, the off-rate (koff) was determined as 0.00194 s⁻¹ and the on-rate (kon) was 959000 M⁻¹ s⁻¹.
